Measurements taken from paper PMC12216130, “Structural basis for the interaction between the bacterial cell division proteins FtsZ and ZapA” (Nature Communications, 2025).

B1: K. pneumoniae ZapA (natural protein)
chain: MSAQPVDLQIFGRSLRVNCPPEQRDALNQAAEDLNQRLQDLKERTRVTNTEQLVFIAALNISYELTQEKAKTRDYASSMEQRIRMLQQTIEQALLEQGRISE
notes: ZapA of Klebsiella pneumoniae; synthetic gene codon-optimised for E. coli in pColdI-TEV; Tetramer in the structures; also called KpZapA; source: E. coli, purified (HisTrap, TEV cleavage, second HisTrap, Superdex200 SEC); not shown: His6, N-terminal, cleaved
B2: K. pneumoniae FtsZ (natural protein, UniProt W9BCK7 1-383, looked up)
chain: MFEPMELTNDAVIKVIGVGGGGGNAVEHMVRERIEGVEFFAVNTDAQALRKTAVGQTIQIGSGITKGLGAGANPEVGRNAADEDREALRAALDGADMVFIAAGMGGGTGTGAAPVVAEVAKDLGILTVAVVTKPFNFEGKKRMAFAEQGITELSKHVDSLITIPNDKLLKVLGRGISLLDAFGAANDVLKGAVQGIAELITRPGLMNVDFADVRTVMSEMGYAMMGSGVASGEDRAEEAAEMAISSPLLEDIDLSGARGVLVNITAGFDLRLDEFETVGNTIRAFASDNATVVIGTSLDPDMNDELRVTVVATGIGMDKRPEITLVTNKQVQQPVMDRYQQHGMSPLTQEQKPAAKVVNDNTPQTAKEPDYLDIPAFLRKQAD
notes: polymerised into protofilaments with GMPCPP, GTP or GMPPNP in the assays; also called KpFtsZ; wild-type FtsZ

Biological target: the molecule itself
Assay: cryo-EM structure; 7.4 uM KpFtsZ, 14.9 uM KpZapA (2x molar excess), 0.6 mM GMPCPP, 17 mM HEPES pH 7.5, 8.6 mM NaCl, 60 mM KCl, 3 mM MgCl2, on ice 15 min; helical refinement to 2.73 A; same data re-analysed with the focus on ZapA (3.89 and 4.27 A maps, 2D classes)

Protein	stoichiometry N	binding result
B1	4	
B2		binds
